Data: publication doi:10.1101/2023.03.13.532366 (bioRxiv, 2023)

B1: Fab4 (wild-type; antigen-binding portion of an antagonistic anti-IL-12Rβ1 antibody) (Fab, V domains shown)
VH: QVQLVESGGGVVQPGRSLRLSCAASGFTFTSYGMSWVRQAPGKGLEWVAGISYDASDTEYADSVKGRFTISRDNSKNTLYLQMNSLRAEDTAVYYCARSPDYIIDYGFDYWGRGTLVTVSS
VL: AIQMTQSPSSLSASVGDRVTITCRASQGISSDLAWYQQKPGKAPKLLIYDASSLQSGVPSRFSGSGSGTDFTLTISSLQPEDFATYYCQQYWWYPFTFGQGTKVEIK
B2: mIL-12 (mIL-12a-AviTag-His6 and untagged mIL-12b), analyte in BLI (complex, mouse)
chain 1: RVIPVSGPARCLSQSRNLLKTTDDMVKTAREKLKHYSCTAEDIDHEDITRDQTSTLKTCLPLELHKNESCLATRETSSTTRGSCLPPQKTSLMMTLCLGSIYEDLKMYQTEFQAINAALQNHNHQQIILDKGMLVAIDELMQSLNHNGETLRQKPPVGEADPYRVKMKLCILLHAFSTRVVTINRVMGYLSSA
chain 2: MWELEKDVYVVEVDWTPDAPGETVNLTCDTPEEDDITWTSDQRHGVIGSGKTLTITVKEFLDAGQYTCHKGGETLSHSHLLLHKKENGIWSTEILKNFKNKTFLKCEAPNYSGRFTCSWLVQRNMDLKFNIKSSSSSPDSRAVTCGMASLSAEKVTLDQRDYEKYSVSCQEDVTCPTAEETLPIELALEARQQNKYENYSTSFFIRDIIKPDPPKNLQMKPLKNSQVEVSWEYPDSWSTPHSYFSLKFFVRIQRKKEKMKETEEGCNQKGAFLVEKTSTEVQCKGGNVCVQAQDRYYNSSCSKWACVPCRVRS

Assays:
[1] = biological target: hIL-12Rβ1_(D3-D5) (domains 3 to 5 of human IL-12 receptor β1) (human, UniProt P42701); assay: crystal structure
[2] = biological target: T1, biotinylated mIL-12Rβ2_(D1-D6)-Casp3-AviTag-His6 (mouse, UniProt P97378 24-637, biotin on the AviTag (in vitro biotinylation with BirA)); assay: BLI
T1 sequence (looked up): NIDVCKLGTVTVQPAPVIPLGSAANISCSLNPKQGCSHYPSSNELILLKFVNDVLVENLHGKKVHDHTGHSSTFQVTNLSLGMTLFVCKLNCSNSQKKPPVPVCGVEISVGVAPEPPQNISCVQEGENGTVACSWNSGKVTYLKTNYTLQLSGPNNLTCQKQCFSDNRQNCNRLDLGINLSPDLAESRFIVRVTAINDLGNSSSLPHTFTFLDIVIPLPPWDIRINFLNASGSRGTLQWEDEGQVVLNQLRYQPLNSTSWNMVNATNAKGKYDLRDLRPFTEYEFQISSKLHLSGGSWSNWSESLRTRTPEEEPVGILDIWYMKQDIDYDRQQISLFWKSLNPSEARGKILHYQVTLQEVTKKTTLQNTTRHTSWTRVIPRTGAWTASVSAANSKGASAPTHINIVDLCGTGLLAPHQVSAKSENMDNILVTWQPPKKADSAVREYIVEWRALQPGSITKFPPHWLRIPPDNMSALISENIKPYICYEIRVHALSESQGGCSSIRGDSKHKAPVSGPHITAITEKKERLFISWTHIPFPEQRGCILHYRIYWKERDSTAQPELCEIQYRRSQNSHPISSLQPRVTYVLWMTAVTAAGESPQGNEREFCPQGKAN

Binder	binding result [1]	binding result [2]
B1	binds	
B2		binds
